Data on 1 substance can be found in patent US20240082327.

The series relates to Fct4 protein (Sendai virus F protein with truncated cytoplasmic domain), uncleaved.

trypsin-like enzyme TrypLE: the “cleavage of Fct4 shown by Western blotting” value is reported as “incubation with a trypsin-like enzyme successfully cleaves Fct4”.
